According to patent publication US20150197558A1 (published 2015):

How the values were obtained:
[1] = target: T1, IHF from Haemophilus influenzae (Haemophilus influenzae, UniProt P43723 1-96); experiment: ELISA
T1 construct: also called IHF (Hi); H. influenzae; not shown: poly-histidine tag
T1 sequence: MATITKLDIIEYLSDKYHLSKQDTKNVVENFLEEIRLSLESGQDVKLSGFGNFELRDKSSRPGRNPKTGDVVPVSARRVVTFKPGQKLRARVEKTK

[2] = target: T2, IHF from Klebsiella pneumoniae (Klebsiella pneumoniae, UniProt A6TAI1 1-99); experiment: ELISA
T2 construct: also called IHF (Kp); K. pneumoniae
T2 sequence: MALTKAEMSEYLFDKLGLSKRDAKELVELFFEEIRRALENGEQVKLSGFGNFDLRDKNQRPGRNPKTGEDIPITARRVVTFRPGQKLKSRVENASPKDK

[3] = target: T3, IHF from Pseudomonas aeruginosa (Pseudomonas aeruginosa, UniProt Q51472 2-100); experiment: ELISA
T3 construct: also called IHF (Pa); P. aeruginosa; not shown: poly-histidine tag
T3 sequence: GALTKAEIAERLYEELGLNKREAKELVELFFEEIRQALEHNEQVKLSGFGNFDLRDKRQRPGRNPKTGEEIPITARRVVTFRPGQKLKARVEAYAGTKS

[4] = target: T4, IHF from Staphylococcus aureus (Staphylococcus aureus, UniProt Q5HFV0 1-90); experiment: ELISA
T4 construct: also called IHF (Sa); HU; not shown: poly-histidine tag
T4 sequence: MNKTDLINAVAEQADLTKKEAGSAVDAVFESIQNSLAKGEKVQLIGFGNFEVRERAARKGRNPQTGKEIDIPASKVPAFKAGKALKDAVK

[5] = target: peptide 19 of the set of overlapping 15-mer peptides from the IHF of Staphylococcus aureus (Staphylococcus aureus); experiment: peptide binding on streptavidin plates
[6] = target: peptide 20 of the set of overlapping 15-mer peptides from the IHF of Staphylococcus aureus (Staphylococcus aureus); experiment: peptide binding on streptavidin plates
[7] = target: peptide 26 of the set of overlapping 15-mer peptides from the IHF of Staphylococcus aureus (Staphylococcus aureus); experiment: peptide binding on streptavidin plates
[8] = target: T1, IHF from Haemophilus influenzae; experiment: ELISA, antigen coated
[9] = target: T2, IHF from Klebsiella pneumoniae; experiment: ELISA, antigen coated
[10] = target: T3, IHF from Pseudomonas aeruginosa; experiment: ELISA, antigen coated
[11] = target: T5, IHF from Acinetobacter baumannii (Acinetobacter baumannii, UniProt A3M2B0 1-98); experiment: ELISA, antigen coated
T5 construct: also called Ab
T5 sequence: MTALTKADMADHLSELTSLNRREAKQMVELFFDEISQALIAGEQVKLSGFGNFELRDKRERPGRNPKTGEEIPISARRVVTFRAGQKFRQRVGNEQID

[12] = target: T1, IHF from Haemophilus influenzae; experiment: BLI, ForteBio Octet QK, ratio of on and off rates
[13] = target: T2, IHF from Klebsiella pneumoniae; experiment: BLI, ForteBio Octet QK, ratio of on and off rates
[14] = target: T3, IHF from Pseudomonas aeruginosa; experiment: BLI, ForteBio Octet QK, ratio of on and off rates
[15] = target: T4, IHF from Staphylococcus aureus; experiment: BLI, ForteBio Octet QK, ratio of on and off rates
[16] = target: IHF target of the pH table of Example 7 (homolog not stated); experiment: pH dependence of binding, pH 2.5; ELISA per legend of FIGS. 6A-6B
[17] = target: IHF target of the pH table of Example 7 (homolog not stated); experiment: pH dependence of binding, pH 3.5; ELISA per legend of FIGS. 6A-6B
[18] = target: IHF target of the pH table of Example 7 (homolog not stated); experiment: pH dependence of binding, pH 4.5; ELISA per legend of FIGS. 6A-6B
[19] = target: IHF target of the pH table of Example 7 (homolog not stated); experiment: pH dependence of binding, pH 5.5; ELISA per legend of FIGS. 6A-6B
[20] = target: IHF target of the pH table of Example 7 (homolog not stated); experiment: pH dependence of binding, pH 6.5; ELISA per legend of FIGS. 6A-6B
[21] = target: IHF target of the pH table of Example 7 (homolog not stated); experiment: pH dependence of binding, pH 7.5; ELISA per legend of FIGS. 6A-6B
[22] = target: T1, IHF from Haemophilus influenzae; experiment: ELISA, antigen coated, half-maximal binding concentration printed as Affinity (pM)
[23] = target: T2, IHF from Klebsiella pneumoniae; experiment: as above
[24] = target: T3, IHF from Pseudomonas aeruginosa; experiment: as above
[25] = target: T4, IHF from Staphylococcus aureus; experiment: as above
[26] = target: T5, IHF from Acinetobacter baumannii; experiment: as above

B1: TRL1232 (antibody, V domains shown)
VH: QVQLVESGAEVKKPGALVKVSCKASGYTFSGYYMHWVRQAPGQGLEWMGWINPKSGGTKYAQKFQGRVTMTRDTSISTAYMELSRLRSDDTAVYFCARGGPSNLERFLERLQPRYSYDDKYAMDVWGQGTTVTVSS
VL: DIVMTQSPGTLSLSPGARATLSCRASQSVSSIYLAWYQQKPGQAPRLLIFGASSRATGIPDRFSGSGSGTDFTLTISRLEPEDFAVYYCQQYGSSPYTFGQGTKLEIKR
OD [1]: 0.1 OD
OD [2]: 0.1 OD
OD [3]: 0.2 OD
OD [4]: 0.2 OD

B2: TRL1070 (antibody, V domains shown)
VH: QVQLVQSGGTLVQPGGSLRLSCAASGFTFSYYSMSWVRQAPGKGLEWVANIKHDGTERNYVDSVKGRFTISRDNSEKSLYLQMNSLRAEDTAVYYCAKYYYGAGTNYPLKYWGQGTRVTVSS
VL: DILMTQSPSSLSASVGDRVTITCRASQGIRNDLGWYQQKPGKAPKLLIYAASSLQSGVPSRFSGSGSGTDFTLTISSLQPEDFATYYCLQDYNYPLTFGGGTKVEIKR
OD [1]: 0.11 OD
OD [4]: 0.3 OD

B3: TRL1335 (antibody, V domains shown)
VH: QVQLVESGAEVKKPGESLKISCKGSGYNFTSYWIGWVRQMPGKGLEWMGVIYPDDSDTRYSPSFKGQVTISADKSISTAFLQWSSLKASDTAVYHCARPPDSWGQGTLVTVSS
VL: DIVMTQSPATLSVSPGERATLSCRASQSVSSNLAWYQQKPGLAPRLLIVGASNRATGIPARFSGSGSGTEFTLTISSLQSEDFAFYYCQQYNNWPFTFGPGTKVDVKR
binding result [5]: no binding
binding result [6]: no binding
binding result [7]: no binding

B4: TRL1216 (antibody, V domains shown)
VH: QVQLVESGGGVVQPGGSLRVSCAASAFSFRDYGIHWVRQAPGKGLQWVAVISHDGGKKFYADSVRGRFTISRDNSENTLYLQMNSLRSDDTAVYYCARLVASCSGSTCTTQPAAFDIWGPGTLVTVSS
VL: DIMLTQPPSVSVSPGQTARITCSGDALPKKYTYWYQQKSGQAPVLLIYEDRKRPSEIPERFSAFTSWTTATLTITGAQVRDEADYYCYSTDISGDIGVFGGGTKLTVL
OD [1]: 0.06 OD
OD [4]: 0.5 OD

B5: TRL1337 (antibody, V domains shown)
VH: QVQLLESGPGLVKPSETPSLTCTVSGGSIRSYYWSWIRQPPGKGLEWIGYIYYSGSTNYNPSLKSRVTISVDMSKNQFSLKLSSVTAADTAMYYCARVYGGSGSYDFDYWGQGTLVTVSS
VL: DIVLTQSPSASGSPGQSVTISCTGTSSDVGGYNYVSWYQQLPGKAPKLMIYEVTKRPSGVPDRFSGSKSGNTASLTVSGLQAEDEADYYCSSFAGSNNHVVFGGGTKLTVL
binding result [8]: no binding
binding result [9]: no binding
binding result [10]: no binding
binding result [11]: no binding

B6: TRL1087 (antibody, V domains shown)
VH: QVQLLESGPGLVRPSDTLSLTCTFSADLSTNAYWTWIRQPPGKGLEWIGYMSHSGGRDYNPSFNRRVTISVDTSKNQVFLRLTSVTSADTAVYFCVREVGSYYDYWGQGILVTVSS
VL: DIEMTQSPSSLSASVGDRITITCRASQGISTWLAWYQQKPGKAPKSLIFSTSSLHSGVPSKFSGSGSGTDFTLTITNLQPEDFATYYCQQKWETPYSFGQGTKLDMIR
OD [1]: 0.06 OD
OD [2]: 0.06 OD
OD [3]: 0.06 OD
OD [4]: 0.14 OD

B7: TRL1068 (antibody, V domains shown)
VH: QVQLVESGPGLVKPSETLSLTCRVSGDSNRPSYWSWIRQAPGKAMEWIGYVYDSGVTIYNPSLKGRVTISLDTSKTRFSLKLTSVIAADTAVYYCARERFDRTSYKSWWGQGTQVTVSS
VL: DIVLTQAPGTLSLSPGDRATLSCRASQRLGGTSLAWYQHRSGQAPRLILYGTSNRATDTPDRFSGSGSGTDFVLTISSLEPEDFAVYYCQQYGSPPYTFGQGTTLDIK
Kd [12]: 350 nM
Kd [13]: 7 nM
Kd [14]: 1 nM
Kd [15]: 1 nM
Kd [16]: 2.7 nM
Kd [17]: 1.2 nM
Kd [18]: 0.0236 nM
Kd [19]: 0.009 nM
Kd [20]: 0.0076 nM
Kd [21]: 0.007 nM
EC50 [22]: 5 nM
EC50 [23]: 0.011 nM
EC50 [24]: 0.011 nM
EC50 [25]: 0.015 nM
EC50 [26]: 0.01 nM

B8: TRL1215 (antibody, V domains shown)
VH: QVQLVESGTEVKNPGASVKVSCTASGYKFDEYGVSWVRQSPGQGLEWMGWISVYNGKTNYSQNFQGRLTLTTETSTDTAYMELTSLRPDDTAVYYCATDKNWFDPWGPGTLVTVSS
VL: DIVMTQSPSASGSPGQSITISCTGTNTDYNYVSWYQHHPGKAPKVIIYDVKKRPSGVPSRFSGSRSGNTATLTVSGLQTEDEADYYCVSYADNNHYVFGSGTKVTVL
OD [4]: 1.4 OD

B9: TRL1330 (antibody, V domains shown)
VH: QVQLVESGTEVKNPGASVKVSCTASGYKFDEYGVSWVRQSPGQGLEWMGWISVYNGKTNYSQNFQGRLTLTTETSTDTAYMELTSLRPDDTAVYYCATDKNWFDPWGPGTLVTVSS
VL: DIVLTQSPSASGSPGQSITISCTGTNTDYNYVSWYQHHPGKAPKVIIYDVKKRPSGVPSRFSGSRSGNTATLTVSGLQTEDEADYYCVSYADNNHYVFGSGTKVTVL
EC50 [25]: 0.023 nM
EC50 [26]: 0.017 nM

B10: TRL1218 (antibody, V domains shown)
VH: QVQLLESGADMVQPGRSLRLSCAASGFNFRTYAMHWVRQAPGKGLEWVAVMSHDGYTKYYSDSVRGQFTISRDNSKNTLYLQMNNLRPDDTAIYYCARGLTGLSVGFDYWGQGTLVTVSS
VL: DIVLTQSASVSGSPGQSITISCTGTSSDVGGYNYVSWYQQHPGKAPKLMIYDVTTRPSGVSDRFSGSKSGNTASLTISGLQAEDEADYYCSSYSSGSTPALFGGGTQLTVL
OD [1]: 0.04 OD
OD [2]: 0.06 OD
OD [3]: 0.09 OD

B11: TRL1230 (antibody, V domains shown)
VH: QVQLVQSGGGLVKPGGSLRLSCGASGFNLSSYSMNWVRQAPGKGLEWVSSISSRSSYIYYADSVQGRFTISRDNAKNSLYLQMNSLRAEDTAIYYCARVSPSTYYYYGMDVWGQGTTVTVSS
VL: DIVLTQPSSVSVSPGQTARITCSGDELPKQYAYWYQQKPGQAPVLVIYKDNERPSGIPERFSGSSSGTTVTLTISGVQAEDEADYYCQSADSSGTYVVFGGGTKLTVL
OD [1]: 0.06 OD
OD [2]: 0.07 OD
OD [3]: 0.3 OD
OD [4]: 0.1 OD
